In article PMC4595974:
pKd: −log10 of the molar value.

Biological target: Aβ42 fibrils (fibrillar Aβ(M1-42))
Assay: SPR

pKd: 7.40
Substance: Brichos domain from proSP-C (lung surfactant C precursor protein) (domain or fragment)
